Data on 40 sequences can be found in the nanobody polyreactivity screen of Harvey et al. (2022).

A short description of the series: yeast display, Sf9 membrane polyspecificity reagent, FACS + sequencing; frameworks hold sequencing errors. Put shortly:
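Galactose induction of a Saccharomyces cerevisiae BJ5465 synthetic nanobody display library ran 36–48 hours. The cells were then stained for 1 hour at 4 °C with 10% biotinylated, detergent-solubilized Sf9 membrane reagent, pulled down on streptavidin microbeads and FACS-sorted into low and high (top ~1%) gates on expression and reagent-binding fluorescence. Labels for polyreactivity follow the gate of origin.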
For “QVQLVESGGGLVQARGSLRLSCAASGFIFASNAMGWYRQAPGKERELVAAITKSGGRTYYADSVKARFTISRDTAKNTVYLQMNSLKPVDTAVYYCAAKVRVVHRPYDHWGQGTQVTVSS”, the “polyreactivity (PSR sort gate)” value was “high polyreactivity”.
The value for “QVQLVESGGALLQAGGSLRLSCAASGFIFRYYAMGWYRQAPGKERELVAAISESGASTYYADSVKGRFTISRDNAKNSVYLQMNSLKPEVTAVYYCAAKPRNSGPYYFYDLNYWGQGTQVTVSS” was “high polyreactivity”; that for “QVQLVESGGGLVQAGGSLRLSCAASGSTFAYNAMGWYRQAPGKERELVAAIRISGGTTYYADSVKGRFTISRDNAKNTVYLQMNSLKREDTAVYYCAAGTAGTTGSPKFSGYGYDYWGQGTQVTVSS” was “low polyreactivity”.
On to “QVQLVESGGGLVQAGGSLRLSCAASGRTFFPNAMGWSRQAPGKERELVASITSRGGGTYYADSVKGRFTISRDNAKKTVYLQMNSLKPEDTAVYYCAADRYYFSPGYNWWSEGYDYWGQGTQVTVSS”, for which the “polyreactivity (PSR sort gate)” value was “low polyreactivity”.
With “QVQLVESGGGLVQAGGSLRLSCAASGSTFRDYAMGWYRQAPGKERELVAAITSGGSTNYADSVKGRFTISRDNAKNTVYLQMNSLKPEDTAVYYCNARYAGWYTPWGRQSVYSDDYWGQGTQVTVSS”, the “polyreactivity (PSR sort gate)” value is “low polyreactivity”.
As to “QVQLVESGGGLVQAGGSLRLSCAASGSTLGYNVMGWYRQAPGKERELVAAISGDGSTNYADSVNGRFTMSRDNAKNTVYLQMNSLKPEDTAVYYCNAPFWGYRTSFSYPVVLRFDYWGQGTQVTVSS”, the “polyreactivity (PSR sort gate)” value is recorded as “low polyreactivity”.
Then “QVQLVESGGGLVQAGGSLRLSCAASGSTFGRYAMGWYRQAPGKERELVAAITSGSSTNYADSVKGRFTISRDNAKNTVYLPMNSLKPEDTAVYYCAAPKSRQSTYYYWGQGTQVTVSS”, with “high polyreactivity”; and “QVQLVESGGGLVQAGGSLRLSCAASGITFYRYAMGWYRQAPGKERELVAAISWSGGSTYYADSVKGRFTFSRDNAKNTVYLQMNSLKPEDTAVYYCNKYIRYPFKRYGYWGQGTQVTLSS”, with “high polyreactivity”; and “QVQLVESGGGLVQAGGSLRLSCAASGFIFGWYAMGWYRQAPGKERELVAAISRSGGSTYYADSVKGRFTISRDNAMNTVYLQMNCLKPEDTAVYYCAAQRSYAYEYWGQGTQVTVSS”, with “high polyreactivity”.
Then “QVQLVESGGGLVQAGGSLRLSCAASGRIFTRYTMGWYRQAPGKDRELVAAITRGGSTYYADSVKGRFTISRDNANNTVYLQMNSLKPEDTAVYYCATQVWGGRYNYWGQGTQVTVTS”, with “high polyreactivity”; and “QVQHVESGGGLVQAGGSLRLSCAASGRIFNLYAMGWYRQAPGKERELVAAIRGRGTSTYYADSVKGRFTISSDNAKNTVFLQINSLKPEDTAVYYCAREGGYGPTLQDTSRYEYCGQGTQVTVSS”, with “low polyreactivity”; and “QVQLVESGGGLVQAGGSLRLSCAASGFIFYDYDMGWYRQAPGKERELVAAISDGGSTNYADSVKGRFTISRDNAKNTVYLQMNSLKPEDTAVYYCAKDGFVYYDYFQYIEYDYWGQGTQVTVSS”, with “low polyreactivity”.
Then “QVQLLESGGGLFQAGGSLRLSCAASGLTFYRYAMGWYRKAPGKERELVAAISFSGGSTYYADSVKGRFTISRDNAKNTVYLQMNSLKPEDTAVYYCAASSYPYGYDYWGQGTQVTVSS”, with “high polyreactivity”.
Regarding “QVQLVQSGGGLVQAGGSLRLRCAASGRIFTPYAMGWNRQAPGQDRELVAAISASGTRTYYADSVKGRFTISRDNAKNTVYLQMKSLQAEDSAVYSCAAYKSGEPSDYWGQGTQVTVSS”, the “polyreactivity (PSR sort gate)” value was “high polyreactivity”.
As for “QVQLVESGGGLVLAGGSLRLSGAASGRISGYNVLGWARQAAGKERELVAAISGSGGSTYYADSVKGRFTISRDNAKNTVYLQMNSLKPEDTADYYCGKATGYPYDYWGHGTQVTVSS”, the “polyreactivity (PSR sort gate)” value is “low polyreactivity”.
The value for “QVQLVQSGGGLVQAGVSLRLSCAPSGFTFYKYAMGWYRQAPGKERELVAAISGSGTSTYYADSVKGRFTISRHNAKNTVYLQMNSLKPEDTAVYYCATRIVFTRRRMYSWGQGTQVNVSS” was “high polyreactivity”; that for “QVQLVESGGGLVQAGGSLRLSCAASGRILYVYVMGWYRQAPGKERELVAAITTSGDSTYYADSVKGRFTISRDNAKNTVYLQMNRLKPEDTAVYYCNAEEHDYVAHMDYWGQGTQVTVSS” was “low polyreactivity”.
Then “QVQLVESGGGLVQAGGSLRLSCAASGIIFDLYAMGWYRQAPGKERELVAAITYGGGSTYYADSVKGRFTISRDNAKHTVYLQMNSLQPEDTAVYYCAAVPRSGMYYWGQGTQVTVSS”, with “high polyreactivity”.
For “QVQLVESGGGLVQAGGSLRLSCAASGSTFGKNAMGWYRQAPGKERELVAAITSSGGRTYYADSVKGRFTISRDNAKNTVYLQMNSLKPEDTAVYYCNAVTRRRSLGPWPVEYDYWGQGTQVTVSS”, the “polyreactivity (PSR sort gate)” value is recorded as “high polyreactivity”.
The value for “QVQLVESGGGLVQAGGSLRLSCAASGFILTSYAMGWYRPEPGKERELVAAISSRGGRTYYADSVKGRFTISRDNAKNTVYLQMNSLKPEDTAVYYCNAVVYVVGDFDYWGQGTQVTVSS” was “high polyreactivity”.
The value for “QVQLVESGGGLVKAGGSLRLSCAASGFIYKFYAMGWYRQAPRKERELVAAINYSGGSTYYADSVKGRFTISRDNAKNTVYLKMNSLKPEDTAVFYCNALYTYGWYSDDYWGQGTQVTVSS” was “high polyreactivity”; that for “QVQLVESGGGLVQAGGSLRLSCAASGFIFDRYAMGWYRQAPGKERELVAAISWTGGSTYYADSVKGRFTISRDNAKNTVYLQMNSLKPEDTAVYYCAVEYSLVYWSGVVDLGYWGQGTQVTVSS” was “high polyreactivity”.
As to “QVQLVESGGGLVQAGGSLRLSCAASGFTFDYNPMGWYRQAPGKERELVAAISNTGDSTYYADSVKGRFTISRDNAKNTDYLQMNSLKPDDTAVYYCAADCLFDVYWEYDYWGQGTQVTVSS”, the “polyreactivity (PSR sort gate)” value is on record as “low polyreactivity”.
Consider “QVQLVESGGGLVQAGGSLRLSCAASGRTFGPYAMGWYRQAPGKERELVAAISSSEGSTYYADSVKGRFTISRDNAKNTVYLQMNSLKPEDTAVYYCNARYYLWSTTRWYGYDYWGQGTQVTVSS”, for which the “polyreactivity (PSR sort gate)” value is “high polyreactivity”.
Regarding “QVQLVESGGGLVQAGGSLRLSCAASGSTFEGNDMGWYRQAPGKERELVASITSDTSTYADSVKGRFTISRDNAKNTVYLQMNSLKPEDTAVYYCNTGSYAETYYWITDPYDYWGQGTQVNVSS”, the “polyreactivity (PSR sort gate)” value was “low polyreactivity”.
Take “QVQLVESGGGLVQAGGSLRLSFAASGRTFLVYAMGWYRQAPGKERELVAGITSGGGTYYADSVKGRFTISRDNAKNTVYLQMNSLKPEDTAVYYCAKYRWYGVYWGQGTQVTVSS”: the “polyreactivity (PSR sort gate)” value is on record as “low polyreactivity”.
The value for “QVQLVESGGGLVQAGGSLRLSCAASGRILGQYAMGWYRQAPGKERELVAAISFRGGRTYYADSVKGRFTISRDNAKNTVYLQMNSLKPEDTAVYYCATDGWRSPYYRNYRYFYTEYYYWGQGTQVTVSS” was “high polyreactivity”; that for “QVQLVESGGGLVQAGGSLRLSCAASVFTFSRYAMGWYRQAPGKERELVAAITRGGGNTYYADSVKGRFTISRDNAKNTVYLQMHSLNPEDTAVFYCNAQVGNFGYRSGGYDYWGQGTQVTVSS” was “high polyreactivity”; that for “QDQLVESGGGLVQAGGTLRLSCAATGSTFTNYAMGWYRQAPGKERELVAALTSVGSTYYADSVKGRFTISRDNAKNTVYLQTNSLKAEDTAVYYCNVVYRDQYNYWGQGTQVTVSS” was “low polyreactivity”.
Turning to “QVQLVESGGSLVQAGGSLRLSCAASGFIFQDNAMGWYRQAPGKERELVAAIRSTGSTNYADSVKGRFTISRDNAKNTVYLQMNSLKPEDTAVYYCNAGKYQSDTPSLVPTEYPAFYYWGQGTQVTVSS”, the “polyreactivity (PSR sort gate)” value is given as “low polyreactivity”.
Then “QVQLVESGGGLVQAGGSLRLSCAASGSIFHPYGMGWYRQAPGKERELVAAITSSGGDKYYADSVKGRFTISRDNAKNTVYLQMNSLKPEDTAVYYCAATGLPGYYAYDYWGQGTQVTVSS”, with “low polyreactivity”; and “QVQLVESGGGLVQAGGSLRISCAASGRTFYYYAMGWYRQAPGKEREFVARITSSGGSTSYADSVKGRFTISRDNAKNTVYLQMNSLKPEDTAVYYFNAVSTYTSDDYDYWGQGSQVTVSS”, with “high polyreactivity”.
Turning to “QVQLVESGGGLVQAGGILRLSCAASGFIFNRYAMGWSRQSPGKARELVADITGGSTYYADSVKGRFTISRDNAKNTVYLQMNSLKPEDTAVYYCAAYVWRYWHEYDYWGQGTQVTVSS”, the “polyreactivity (PSR sort gate)” value is “low polyreactivity”.
Then “QVQLVETGGGVVQAGGSLRISCAASGRIFLYYTMGWYRQAPGIERELVATIRSGDSTIYADAVKGRFTISRDNAKNTVYLQMNTLTPEDTAVYYCAADWDIFQQGANGAPYDYWGQGTQVTVSS”, with “low polyreactivity”.
Then “QVQLVESGGGLVQAGGSLRLSCAASGNIFETYAMGWYRQAPGKERELVAVITRGGSTYYADSVKGRFTISRDNAKNTVYLQMNSLKPEDTAVYYCARDAFDDWYGLTDDKSDYWGQGTQVTVSS”, with “low polyreactivity”.
As to “QVQLVESGGGLVQAGGSLRLSCAASGSIFDLNAMGWYRQAPGKERELVAAISSVGGTYYADSVKGRFTISRDNAKNTGYLQMNSLKPEDTAVYYCNRVTRWTYNYWGQGTQVTVSS”, the “polyreactivity (PSR sort gate)” value is listed as “high polyreactivity”.
The value for “QVQLVESGGGLVQAGGSLRLSCAASGSIFAVYAMGRYRQAPGKERELVASISRTGTTNYADSVKGRFTISRDNAKNTVYLQMNSLKPEDTAVYYCNADAYLYYKYHWGFTFYQYEYWGQGTQVTVSS” was “low polyreactivity”; that for “QVQLVESGGGLVQAGGSLRLSCAASGSTFRYYAMAWYREAPGKERELVAAISRRGGSTYYADSVKGRFTISRDNAKNTVYLQMNSLIPEDTAVYYCNAAASTFTSWIRGPGVCYDYWGQGTQVTVSS” was “high polyreactivity”; that for “QVHLVESGGGLVQAGGSLRLSCAASGSIFNLYGMGWYRQAPGKERELVASITSSGTRTYYADSVKGRFTISRDNAKNTVYLQMNSLKPEDTAVYYCAAGSYLRSNRGYWGQGTQVTVSS” was “high polyreactivity”.
Take “QVQLVESGGGLVQAGGSLRLSCADSGHIFFYYTMGWYRQAPGKEREMVAGITIGGSTNYADSVKVRFTISRDNAKNTVYLQMNSLKPEDTAVYYCNVVKYVYIYSYSEYYYWGQGTQVTVSS”: the “polyreactivity (PSR sort gate)” value is “low polyreactivity”.
